Like-named read-outs stand apart in the source and are kept apart here.
Columns and labels:
[1] = target: T1, GARP (CHO-K1-GARP cell line that overexpresses GARP) (UniProt Q14392 20-662, limits assumed); experiment: FACS on CHO-K1-GARP cells
T1 construct: whole, on cells; also called GARP protein
T1 sequence (looked up): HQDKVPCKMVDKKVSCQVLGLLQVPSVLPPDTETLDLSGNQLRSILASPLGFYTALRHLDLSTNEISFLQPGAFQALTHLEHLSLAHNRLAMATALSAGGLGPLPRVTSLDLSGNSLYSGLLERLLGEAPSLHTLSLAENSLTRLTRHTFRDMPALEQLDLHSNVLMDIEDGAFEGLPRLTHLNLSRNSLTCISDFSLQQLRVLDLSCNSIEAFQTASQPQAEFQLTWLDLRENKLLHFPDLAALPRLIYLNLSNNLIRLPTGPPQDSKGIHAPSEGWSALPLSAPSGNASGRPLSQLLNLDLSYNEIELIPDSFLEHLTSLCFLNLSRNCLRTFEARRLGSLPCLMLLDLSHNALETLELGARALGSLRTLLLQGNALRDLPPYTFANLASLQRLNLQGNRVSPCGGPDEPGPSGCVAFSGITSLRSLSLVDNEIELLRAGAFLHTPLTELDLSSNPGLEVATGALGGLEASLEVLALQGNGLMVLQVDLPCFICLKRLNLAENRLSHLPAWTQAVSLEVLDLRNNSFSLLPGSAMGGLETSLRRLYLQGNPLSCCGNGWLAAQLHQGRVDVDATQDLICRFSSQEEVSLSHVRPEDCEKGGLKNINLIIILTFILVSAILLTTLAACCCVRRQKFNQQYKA

[2] = target: T2, GARP-TGF-β complex (293-GARP/TGFβ stably transfected cells) (UniProt Q14392 20-662; P01137 30-390); experiment: FACS on 293-GARP/TGFβ cells
T2 construct: whole, on cells; Complex of GARP and (latent) TGF-β on the cell surface; also called 293-GARP/TGFβ cell; 293F-GAPR/TGFβ/αvβ6 cells

[3] = target: T1, GARP (CHO-K1-GARP cell line that …); experiment: FACS on CHO-K1-GARP cells; remark: listed apart in the source
human PD-L1 [4] = target: T3, human PD-L1 (human, UniProt Q9NZQ7 19-290); experiment: FACS on MC38-hPD-L1 cells
T3 construct: whole, on cells; also called hPD-L1; PD-L1 antigen on MDA-MB-231 cells
T3 sequence (Q9NZQ7 19-290): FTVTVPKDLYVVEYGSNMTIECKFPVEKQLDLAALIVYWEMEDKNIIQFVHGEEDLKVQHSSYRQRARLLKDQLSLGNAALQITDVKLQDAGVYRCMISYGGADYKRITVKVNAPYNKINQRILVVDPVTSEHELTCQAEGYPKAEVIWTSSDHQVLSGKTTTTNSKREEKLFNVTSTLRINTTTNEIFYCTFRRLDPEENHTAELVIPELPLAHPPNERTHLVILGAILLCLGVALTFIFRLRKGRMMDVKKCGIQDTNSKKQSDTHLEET

[5] = target: T2, GARP-TGF-β complex (293-GARP/TGFβ …); experiment: FACS on 293-GARP/TGFβ cells; remark: listed apart in the source
[6] = target: T2, GARP-TGF-β complex (293-GARP/TGFβ …); experiment: cell-based or functional assay
human PD-L1 [7] = target: T3, human PD-L1; experiment: cell-based or functional assay
[8] = target: T2, GARP-TGF-β complex (293-GARP/TGFβ …); experiment: FACS on 293-GARP/TGFβ cells; remark: listed apart in the source
[9] = target: T4, human transforming growth factor β1 (human, UniProt P01137 279-390); experiment: ELISA, plate-coated hTGF-β1
T4 construct: Coated on the ELISA plate at 100 ng/well; also called hTGF-β1; TGF-β
T4 sequence (P01137 279-390 limits assumed): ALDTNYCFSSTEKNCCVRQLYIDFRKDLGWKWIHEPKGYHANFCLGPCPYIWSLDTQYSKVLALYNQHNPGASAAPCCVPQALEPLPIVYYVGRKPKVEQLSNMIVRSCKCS

B1: antibody m212 (antibody, V domains shown)
VH: QVQLQQPGPELVKPGASVKLTCKASGYIFTSYWMHWVKRGPGRGLEWIGRIAPNSGGAHYHEKFKTKVTLTVDKPSSTAYMEFSSLTSEDSAVYYCARGNYGMDYWGQGTAVTVSS
VL: DIQMTQTTSSLSASLGDRVTISCRASQDISNYLNWYQQKPDGTVELLIYYTSTLHSGVPSRFSGSGSGTDYSLTISNLEQEDIATYFCQQVNTLPFTFGSGTKLEII
notes: Hybridoma-derived, expressed in mammalian cells; hIgG1 and hIgG4 as controls
EC50 [1]: 0.46 nM
EC50 [2]: < 2 nM

B2: antibody m212-hu (antibody, V domains shown)
VH: QVQLVQSGAEVKKPGSSVKVSCKASGYIFTSYWMHWVKQAPGQGLEWIGRIAPNSGGAHYHEKFKTKVTITADKSTSTAYMEFSSLRSEDTAVYYCARGNYGMDYWGQGTAVTVSS
VL: DIQMTQSPSSLSASVGDRVTITCRASQDISNYLNWYQQKPGGAPELLIYYTSTLHSGVPSRFSGSGSGTDYTLTISSLQPEDFATYFCQQVNTLPFTFGSGTKLEIK
notes: Humanized m212
EC50 [3]: 1.4 nM
binding result (human PD-L1 [4]): no binding (tested: initial concentration 200 nM)
EC50 [5]: < 2 nM

B3: b202-hu-H-D2hu (bispecific antibody, human IgG1, kappa)
heavy: not shown
light: DIVLTQSPDSLAVSLGERATINCRASESVTIIGTNLIQWFQQKPGQPPKLLIYHASNLETGVPDRFSGSGSRTDFTLTISSLQAEDVAVYYCLQSRQIPRTFGGGTKVEIKRTVAAPSVFIFPPSDEQLKSGTASVVCLLNNFYPREAKVQWKVDNALQSGNSQESVTEQDSKDSTYSLSSTLTLSKADYEKHKVYACEVTHQGLSSPVTKSFNRGEC
notes: also called b202-H-D2hu
IC50(nM), TGFβ reporter gene blocking (293F-GAPR/TGFβ/αvβ6 cells with 293-SBE-Luciferase cells) [6]: 4.9 nM
IC50(nM), PD-1/PD-L1 NFAT-luciferase reporter (293T-hPD-L1 with Jurkat-PD1-CD3zeta-NFAT-Luc2 cells) (human PD-L1 [7]): 7.8 nM
EC50 (human PD-L1 [4]): 0.34 nM
EC50 [8]: 5.6 nM

B4: antibody m305-hu (antibody, V domains shown)
VH: QVQLVQSGAEVKKPGASVKVSCKTSGYTFTDYNMNWVKQAPGQGLEWIGDINPYSGGTIYNQKFKGRATLTTDTSTSTAYMELRSLRSDDTAVYYCARVSKGSGDYWGQGTLVTVSS
VL: DIQMTQSPSSLSASVGDRVTITCRASQEISGYLSWLQQKPGGAPKRLIYAASTLDSGVPSRFSGSRSGTDYTLTISSLQPEDFATYYCLQYASYPTCTFGGGTKVEIK
notes: Humanized m305
EC50 [3]: 0.45 nM
EC50 [5]: 2.1 nM

B5: antibody m107 (antibody, V domains shown)
VH: QVHLQQSGAALARPGASVKMSCKASGYTFSAYTIHWVKQRPGQGLEWIGYINPSNDFAKYIQKFKDKATLTADKSSSTAYMQLNSLTSEDSAIYYCARVDYYGGSYRWYLDVWGAGTTVTVSS
VL: DIVLTQSPATLSVTPGDSVSLSCRASQSISNNLHWYQQKSHESPRLLIKYTSQSISGIPSRFSGSGSGTDFTLSINSVETEDFGMYFCQQSNSWPIFTFGSGTKLEIK
EC50 [1]: > 2 nM
EC50 [2]: 3.2 nM
EC50 [9]: 0.021 nM

B6: antibody m305 (antibody, V domains shown)
VH: EVQLQQSGPELVKPGASVKIPCKTSGYTFTDYNMNWVKQSHGKSLEWIGDINPYSGGTIYNQKFKGKAILTVDKSSSTAYMELRSLTSEDTGIYYCARVSKGSGDYWGQGTTLTVSS
VL: DIQMTQSPSSLSASLGERVSLTCRASQEISGYLSWLQQKPDGTIKRLIYAASTLDSGVPKRFSGSRSGSDYSLTISSLESEDFADYYCLQYASYPTCTFGGGTKLEIK
EC50 [1]: < 1 nM
EC50 [2]: 4.1 nM

B7: b202-L-D2hu (bispecific antibody, human IgG1, kappa)
heavy: not shown
light: DIVLTQSPDSLAVSLGERATINCRASESVTIIGTNLIQWFQQKPGQPPKLLIYHASNLETGVPDRFSGSGSRTDFTLTISSLQAEDVAVYYCLQSRQIPRTFGGGTKVEIKRTVAAPSVFIFPPSDEQLKSGTASVVCLLNNFYPREAKVQWKVDNALQSGNSQESVTEQDSKDSTYSLSSTLTLSKADYEKHKVYACEVTHQGLSSPVTKSFNRGECGGGGSGGGGSGGGGSGGGGSEVQLVESGGGLVQPGGSLRLSCAASGRDFLTYGMGWFRQAPGKGLEFVASINWSGSMTYYADSVKGRFTISRDNAKNSVYLQMNSLRAEDTAVYICAARRGAVTYASSNEYEHWGQGTQVTVSS
notes: also called b202-hu-L-D2hu
IC50(nM), TGFβ reporter gene blocking (293F-GAPR/TGFβ/αvβ6 cells with 293-SBE-Luciferase cells) [6]: 1.7 nM
IC50(nM), PD-1/PD-L1 NFAT-luciferase reporter (293T-hPD-L1 with Jurkat-PD1-CD3zeta-NFAT-Luc2 cells) (human PD-L1 [7]): 13 nM
EC50 (human PD-L1 [4]): 0.39 nM
EC50 [8]: 5.4 nM

From patent publication US20240383974A1 (BETTA PHARMACEUTICALS, published 2024)
